Assay results taken from patent US20170342144A1 (Sanofi, published 2017).

T1: human TGFβ2 (human, UniProt P61812 303-414)
T1 construct: also called TGFβ2 homodimer
T1 sequence: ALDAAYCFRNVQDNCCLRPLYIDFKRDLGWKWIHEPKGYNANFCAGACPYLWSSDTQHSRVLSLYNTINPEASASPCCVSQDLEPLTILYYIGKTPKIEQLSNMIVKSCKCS

T2: human TGFβ3 (human, UniProt P10600 301-412)
T2 sequence: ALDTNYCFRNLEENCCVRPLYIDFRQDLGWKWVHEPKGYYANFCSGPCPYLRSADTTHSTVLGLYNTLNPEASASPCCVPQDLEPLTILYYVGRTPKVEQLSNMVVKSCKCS


Assays:
Test in all cases: Biacore off-rate vs wt GC1008, 50 nM
human TGFβ1 = target: T3, human TGFβ1 (human, UniProt P01137 279-390)
T3 construct: also called TGFβ1 homodimer
T3 sequence (P01137 279-390 limits assumed): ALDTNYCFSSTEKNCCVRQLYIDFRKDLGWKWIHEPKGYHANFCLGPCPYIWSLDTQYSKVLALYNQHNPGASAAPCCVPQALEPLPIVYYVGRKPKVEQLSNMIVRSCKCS
Excerpt: (§1) Plasmids encoding either the GC1008 heavy chain or light chain were used as a template in PCR-based mutagenesis reactions. Mutations to the encoding DNA were made to create 155 single amino acid substitutions of the encoded heavy chain amino acid sequence and one single amino acid substitution of the encoded light chain amino acid sequence. A QuikChange® Lightning Site-Directed Mutagenesis kit (Agilent Technologies, Santa Clara Calif.) was used according to the manufacturer's instructions to create DNA mutations using a set of forward and reverse primers, either designed for a specific amino acid or for all 20 amino acids with a degenerate codon (NNK). After sequencing confirmation, identified mutant DNA was paired with a wild-type light or heavy chain DNA for transfection into an Expi293F™ host cell suspension (Life Techonologies Corp., Grand Island, N.Y.). At 4 days post-transfection, conditioned media (1 mL) was harvested and purified using a 1 mL Protein A PhyTip® column (PhyNexus, Inc., San Jose, Calif.) and a PureSpeed™ 12-channel pipette (Rainin Instrument LLC, Oakland, Calif.). Purified variant antibody samples were analyzed in duplicate on a Biacore® 3000 (GE Healthcare) at 50 nM concentrations, using the 100 RU level TGFβ1, 2, and 3 immobilized surfaces. The off-rate (kd) of the variants was divided by the kd of the wild-type control to obtain the fold change in the kd. […] A heat map was generated to visualize the results. Variants that completely lost affinity for TGFβ were shown in red without numbers.

human TGFβ2 = target: T1, human TGFβ2
Excerpt: as §1

human TGFβ3 = target: T2, human TGFβ3
Excerpt: as §1

| kd var/kd wt (human TGFβ1) | kd var/kd wt (human TGFβ2) | kd var/kd wt (human TGFβ3) | Binder |
| --- | --- | --- | --- |
| 1.1 | 1.3 | 1 | D56S (antibody, V domains shown, GC1008 IgG4 variant) VH: QVQLVQSGAEVKKPGSSVKVSCKASGYTFSSNVISWVRQAPGQGLEWMGGVIPIVSIANYAQRFKGRVTITADESTSTTYMELSSLRSEDTAVYYCASTLGLVLDAMDYWGQGTLVTVSS VL: ETVLTQSPGTLSLSPGERATLSCRASQSLGSSYLAWYQQKPGQAPRLLIYGASSRAPGIPDRFSGSGSGTDFTLTISRLEPEDFAVYYCQQYADSPITFGQGTRLEIK |
| 1.3 | 1.4 | 1.5 | N32A (antibody, V domains shown, GC1008 IgG4 variant) VH: QVQLVQSGAEVKKPGSSVKVSCKASGYTFSSAVISWVRQAPGQGLEWMGGVIPIVDIANYAQRFKGRVTITADESTSTTYMELSSLRSEDTAVYYCASTLGLVLDAMDYWGQGTLVTVSS VL: ETVLTQSPGTLSLSPGERATLSCRASQSLGSSYLAWYQQKPGQAPRLLIYGASSRAPGIPDRFSGSGSGTDFTLTISRLEPEDFAVYYCQQYADSPITFGQGTRLEIK |
| 1.8 | 1.5 | 2 | I54A (antibody, V domains shown, GC1008 IgG4 variant) VH: QVQLVQSGAEVKKPGSSVKVSCKASGYTFSSNVISWVRQAPGQGLEWMGGVIPAVDIANYAQRFKGRVTITADESTSTTYMELSSLRSEDTAVYYCASTLGLVLDAMDYWGQGTLVTVSS VL: ETVLTQSPGTLSLSPGERATLSCRASQSLGSSYLAWYQQKPGQAPRLLIYGASSRAPGIPDRFSGSGSGTDFTLTISRLEPEDFAVYYCQQYADSPITFGQGTRLEIK |
| 1.5 | 1.3 | 1.7 | I54M (antibody, V domains shown, GC1008 IgG4 variant) VH: QVQLVQSGAEVKKPGSSVKVSCKASGYTFSSNVISWVRQAPGQGLEWMGGVIPMVDIANYAQRFKGRVTITADESTSTTYMELSSLRSEDTAVYYCASTLGLVLDAMDYWGQGTLVTVSS VL: ETVLTQSPGTLSLSPGERATLSCRASQSLGSSYLAWYQQKPGQAPRLLIYGASSRAPGIPDRFSGSGSGTDFTLTISRLEPEDFAVYYCQQYADSPITFGQGTRLEIK |
| 1.5 | 1.3 | 1.6 | I54P (antibody, V domains shown, GC1008 IgG4 variant) VH: QVQLVQSGAEVKKPGSSVKVSCKASGYTFSSNVISWVRQAPGQGLEWMGGVIPPVDIANYAQRFKGRVTITADESTSTTYMELSSLRSEDTAVYYCASTLGLVLDAMDYWGQGTLVTVSS VL: ETVLTQSPGTLSLSPGERATLSCRASQSLGSSYLAWYQQKPGQAPRLLIYGASSRAPGIPDRFSGSGSGTDFTLTISRLEPEDFAVYYCQQYADSPITFGQGTRLEIK |
| 1.6 | 1.5 | 1.3 | D56V (antibody, V domains shown, GC1008 IgG4 variant) VH: QVQLVQSGAEVKKPGSSVKVSCKASGYTFSSNVISWVRQAPGQGLEWMGGVIPIVVIANYAQRFKGRVTITADESTSTTYMELSSLRSEDTAVYYCASTLGLVLDAMDYWGQGTLVTVSS VL: ETVLTQSPGTLSLSPGERATLSCRASQSLGSSYLAWYQQKPGQAPRLLIYGASSRAPGIPDRFSGSGSGTDFTLTISRLEPEDFAVYYCQQYADSPITFGQGTRLEIK |
| 0.9 | 1.1 | 1.2 | I52V (antibody, V domains shown, GC1008 IgG4 variant) VH: QVQLVQSGAEVKKPGSSVKVSCKASGYTFSSNVISWVRQAPGQGLEWMGGVVPIVDIANYAQRFKGRVTITADESTSTTYMELSSLRSEDTAVYYCASTLGLVLDAMDYWGQGTLVTVSS VL: ETVLTQSPGTLSLSPGERATLSCRASQSLGSSYLAWYQQKPGQAPRLLIYGASSRAPGIPDRFSGSGSGTDFTLTISRLEPEDFAVYYCQQYADSPITFGQGTRLEIK |
| 1 | 1 | 0.8 | I54V (antibody, V domains shown, GC1008 IgG4 variant) VH: QVQLVQSGAEVKKPGSSVKVSCKASGYTFSSNVISWVRQAPGQGLEWMGGVIPVVDIANYAQRFKGRVTITADESTSTTYMELSSLRSEDTAVYYCASTLGLVLDAMDYWGQGTLVTVSS VL: ETVLTQSPGTLSLSPGERATLSCRASQSLGSSYLAWYQQKPGQAPRLLIYGASSRAPGIPDRFSGSGSGTDFTLTISRLEPEDFAVYYCQQYADSPITFGQGTRLEIK |
| 4.7 | 2.9 | 5.1 | L104W (antibody, V domains shown, GC1008 IgG4 variant) VH: QVQLVQSGAEVKKPGSSVKVSCKASGYTFSSNVISWVRQAPGQGLEWMGGVIPIVDIANYAQRFKGRVTITADESTSTTYMELSSLRSEDTAVYYCASTLGLVWDAMDYWGQGTLVTVSS VL: ETVLTQSPGTLSLSPGERATLSCRASQSLGSSYLAWYQQKPGQAPRLLIYGASSRAPGIPDRFSGSGSGTDFTLTISRLEPEDFAVYYCQQYADSPITFGQGTRLEIK |
| 1.2 | 1.2 | 1.6 | N32G (antibody, V domains shown, GC1008 IgG4 variant) VH: QVQLVQSGAEVKKPGSSVKVSCKASGYTFSSGVISWVRQAPGQGLEWMGGVIPIVDIANYAQRFKGRVTITADESTSTTYMELSSLRSEDTAVYYCASTLGLVLDAMDYWGQGTLVTVSS VL: ETVLTQSPGTLSLSPGERATLSCRASQSLGSSYLAWYQQKPGQAPRLLIYGASSRAPGIPDRFSGSGSGTDFTLTISRLEPEDFAVYYCQQYADSPITFGQGTRLEIK |
| 2.1 | 1.4 | 1.6 | I54H (antibody, V domains shown, GC1008 IgG4 variant) VH: QVQLVQSGAEVKKPGSSVKVSCKASGYTFSSNVISWVRQAPGQGLEWMGGVIPHVDIANYAQRFKGRVTITADESTSTTYMELSSLRSEDTAVYYCASTLGLVLDAMDYWGQGTLVTVSS VL: ETVLTQSPGTLSLSPGERATLSCRASQSLGSSYLAWYQQKPGQAPRLLIYGASSRAPGIPDRFSGSGSGTDFTLTISRLEPEDFAVYYCQQYADSPITFGQGTRLEIK |
| 1.3 | 1.4 | 1.8 | N32D (antibody, V domains shown, GC1008 IgG4 variant) VH: QVQLVQSGAEVKKPGSSVKVSCKASGYTFSSDVISWVRQAPGQGLEWMGGVIPIVDIANYAQRFKGRVTITADESTSTTYMELSSLRSEDTAVYYCASTLGLVLDAMDYWGQGTLVTVSS VL: ETVLTQSPGTLSLSPGERATLSCRASQSLGSSYLAWYQQKPGQAPRLLIYGASSRAPGIPDRFSGSGSGTDFTLTISRLEPEDFAVYYCQQYADSPITFGQGTRLEIK |
| 1.7 | 0.8 | 0.7 | E74C (antibody, V domains shown, GC1008 IgG4 variant) VH: QVQLVQSGAEVKKPGSSVKVSCKASGYTFSSNVISWVRQAPGQGLEWMGGVIPIVDIANYAQRFKGRVTITADCSTSTTYMELSSLRSEDTAVYYCASTLGLVLDAMDYWGQGTLVTVSS VL: ETVLTQSPGTLSLSPGERATLSCRASQSLGSSYLAWYQQKPGQAPRLLIYGASSRAPGIPDRFSGSGSGTDFTLTISRLEPEDFAVYYCQQYADSPITFGQGTRLEIK |
| 1.3 | 1.5 | 1.2 | D56T (antibody, V domains shown, GC1008 IgG4 variant) VH: QVQLVQSGAEVKKPGSSVKVSCKASGYTFSSNVISWVRQAPGQGLEWMGGVIPIVTIANYAQRFKGRVTITADESTSTTYMELSSLRSEDTAVYYCASTLGLVLDAMDYWGQGTLVTVSS VL: ETVLTQSPGTLSLSPGERATLSCRASQSLGSSYLAWYQQKPGQAPRLLIYGASSRAPGIPDRFSGSGSGTDFTLTISRLEPEDFAVYYCQQYADSPITFGQGTRLEIK |
| 1.2 | 1.1 | 1.1 | I54L (antibody, V domains shown, GC1008 IgG4 variant) VH: QVQLVQSGAEVKKPGSSVKVSCKASGYTFSSNVISWVRQAPGQGLEWMGGVIPLVDIANYAQRFKGRVTITADESTSTTYMELSSLRSEDTAVYYCASTLGLVLDAMDYWGQGTLVTVSS VL: ETVLTQSPGTLSLSPGERATLSCRASQSLGSSYLAWYQQKPGQAPRLLIYGASSRAPGIPDRFSGSGSGTDFTLTISRLEPEDFAVYYCQQYADSPITFGQGTRLEIK |
| 1.9 | 1.5 | 2 | G101Y (antibody, V domains shown, GC1008 IgG4 variant) VH: QVQLVQSGAEVKKPGSSVKVSCKASGYTFSSNVISWVRQAPGQGLEWMGGVIPIVDIANYAQRFKGRVTITADESTSTTYMELSSLRSEDTAVYYCASTLYLVLDAMDYWGQGTLVTVSS VL: ETVLTQSPGTLSLSPGERATLSCRASQSLGSSYLAWYQQKPGQAPRLLIYGASSRAPGIPDRFSGSGSGTDFTLTISRLEPEDFAVYYCQQYADSPITFGQGTRLEIK |
